Laboratory results taken from publication PMC4158924.

Target: K12-acetylated histone H4 tail peptide (residues 1–20), biotinylated at the C-terminus (UniProt P62805)
Assay: SPR

- Kd: 300 µM
Substance: second bromodomain of human BRD2 (BRD2-BD2: residues 348–455) (from UniProt P25440 348-455) (domain or fragment)
